Source: patent US20030032157A1, “Polypeptides interactive with Bcl-XL” (priority 2001, published 2003)

B1: K-ras oncogene cluster polypeptide (peptide)
chain: MDTIKGFDLITNFQVVADALNISLLPNPLATA
notes: Selected clone derived from the 3' UTR of the parent mRNA; not further characterized
B2: SEQ ID NO 34 (peptide)
chain: TSTLPHIRRTR
notes: mRNA display clone from a hypothetical or unknown polypeptide
B3: transforming growth factor cluster polypeptide (peptide)
chain: FVRSVGWRLQNIGDDMDHAICGHDVRLG
notes: Selected clone with insert in reversed orientation relative to the parent mRNA; not further characterized
B4: SEQ ID NO 17 (peptide)
chain: LFTILLTLWTMRCSSTPSG
notes: mRNA display clone from a known polypeptide
B5: SEQ ID NO 23 (peptide)
chain: GSSKDLAKHIQVVCDGMDLTPKIHDLKPQC
notes: as for B4
B6: SEQ ID NO 16 (peptide)
chain: TYWNLLPPKRPIKEVLTDIFAKVLEKGWVDSRS
notes: as for B4
B7: SEQ ID NO 39 (peptide)
chain: GLAKKSKRNPANLTPP
notes: as for B2
B8: SEQ ID NO 42 (peptide)
chain: GVSEAEGTFPLSTFLLGIASRLRSVA
notes: as for B2
B9: SEQ ID NO 31 (peptide)
chain: MRDLPGHYYETLKFLVGHLKTIADHR
notes: as for B2
B10: arsenate resistance protein cluster polypeptide (peptide)
chain: AGTQPLILAQFMRVGGDELLHFLLW
notes: as for B3
B11: MYBPC3 cluster polypeptide (peptide)
chain: EANRKQPKPNNSSTAYYNFTGVSILPSYKP
notes: as for B1
B12: clone w75 (peptide)
chain: RTLQPRLLQNQQQHLPALPIWFLLQWLRLHPL
notes: as for B2
B13: SEQ ID NO 13 (peptide)
chain: RGAVFSQDKDVVQEATKVLRNAADNFYINDR
notes: as for B4
B14: SEQ ID NO 18 (peptide)
chain: AGEDMEISVKELRTILNRIISKHKDLRT
notes: as for B4
B15: cDNA FLJ20617 cluster polypeptide (peptide)
chain: GSLTHHINNIKPSSTR
notes: Selected clone translated from the incorrect reading frame; not further characterized
B16: SEQ ID NO 47 (peptide)
chain: PWQYKPIADLYRGRESRPSAPR
notes: as for B2
B17: SEQ ID NO 50 (peptide)
chain: GAMEREWAMFLRAASSRIRGGV
notes: as for B2
B18: SEQ ID NO 38 (peptide)
chain: MAVIINELSQRDSCGPLKISLNNKILVYGNLFSSFTP
notes: as for B2
B19: SEQ ID NO 48 (peptide)
chain: LFSVLLRYLADNFLPGGS
notes: as for B2
B20: SEQ ID NO 32 (peptide)
chain: CGGRMEDIPCSRVGHIYRKYVPYKVPAGVSLARNLKRVADWM
notes: as for B2
B21: SEQ ID NO 49 (peptide)
chain: DWQVLLGKLLWKIDNPGI
notes: as for B2
B22: SEQ ID NO 14 (peptide)
chain: TGTGAPRFIKEVQELNSALHQSDLIDIYRTLHP
notes: as for B4
B23: SEQ ID NO 46 (peptide)
chain: AAMLLDRRGTECDLWINEMSLLHKIVQDVYGTPHPPHS
notes: as for B2
B24: SEQ ID NO 26 (peptide)
chain: ANLLLLMVPILIAMAFLMLTERKILGYIQPR
notes: as for B4
B25: SEQ ID NO 21 (peptide)
chain: WERIEERLAYIADHLGFSWTELARAL
notes: as for B4
B26: SEQ ID NO 36 (peptide)
chain: ILTSPWTTSSGLWPRLQKAAEAFKQLNQP
notes: as for B2
B27: L-plastin cluster polypeptide (peptide)
chain: SGLRKPTCGSSQR
notes: as for B1
B28: SEQ ID NO 30 (peptide)
chain: GLKLATVAASMDRVPKVTPSSAISSIARENHEPERLGLNGIAETT
notes: as for B2
B29: SEQ ID NO 22 (peptide)
chain: ARGDFAQAAQQLWLALRALGRPLPTSH
notes: as for B4
B30: SEQ ID NO 40 (peptide)
chain: SSQALRIHQWLHLFSDFTST
notes: as for B2
B31: SEQ ID NO 27 (peptide)
chain: LRLNTTVWPTIITPILLTLFLITNRLITTR
notes: as for B4
B32: SEQ ID NO 28 (peptide)
chain: TLYLKLTALAVTFLGLLTALDLNYPT
notes: as for B4
B33: SEQ ID NO 19 (peptide)
chain: GLREESEEYMAAADEYNRLKQVKQPA
notes: as for B4
B34: lysosomal pepstatin insensitive protease cluster polypeptide (peptide)
chain: ATWMKTLQGLLDRIQAFPSSPH
notes: as for B1
B35: SEQ ID NO 15 (peptide)
chain: SNELTRAVEELHKLLKEARE
notes: as for B4
B36: SEQ ID NO 24 (peptide)
chain: GFLAAEQDIREEIRKVVQSLEQTAREVLTLLQG
notes: as for B4
B37: SEQ ID NO 43 (peptide)
chain: RAPRFIKQILLDLKREIDFNVRLVEYFNPLS
notes: as for B2
B38: UDP glucoronosyl transferase 2B4 precursor cluster polypeptide (peptide)
chain: VSCWPSYLKYPLSTASASLLATQLKSIA
notes: as for B15
B39: SEQ ID NO 29 (peptide)
chain: AGVFSAEPSPFPQTRRSMVFARHLREVGDEFRSRHLNSTDDADE
notes: as for B2
B40: SEQ ID NO 45 (peptide)
chain: LALAYYSSRQYASALKHIAEIIERGIRQH
notes: as for B2

Target: T1, human Bcl-XL-GST fusion protein (human, UniProt P08515 1-218 = GST; Q07817 1-211)
T1 construct: Made in E. coli, immobilized on glutathione Sepharose beads; whole entry named; also called Bcl-XL-glutathione S-transferase (GST) fusion protein; GST-BCL-XL
Assay: mRNA display selection on immobilized Bcl-XL-GST
Experimental: Detection of a polypeptide binding to a Bcl-XL-glutathione S-transferase (GST) fusion protein was carried out as follows. Twenty microliters of glutathione Sepharose 4B slurry (AP Biotech) was aliquoted to a microcentrifuge tube and washed with PBS. The Bcl-XL-GST fusion protein (60 μg), prepared as describe above, was added and allowed to bind to the Sepharose beads for 1 hr at 4° C. The beads were then re-washed in selection buffer (50 mM Tris-HCL pH 7.5, 150 mM KCl, 0.05% Triton X-100, 0.5 mg/ml BSA, and 0.1 mg/ml salmon sperm DNA). The Bcl-XL-GST beads were resuspended in 100 μl of selection buffer (approximately 11.5 μM Bcl-XL) and ³⁵S-labeled mRNA display construct or free peptide was added (approximately 10-60 nM) and incubated on a rotator for 1 hr at 4° C. The reaction was then transferred to a microcentrifuge column (BioRad) and unbound mRNA display constructs or free peptides were removed by a 10 sec spin at 1,000 rpm. The Sepharose beads were then washed three times with 500 μl of selection buffer. The extent of binding between the Bcl-XL-GST fusion protein and the mRNA display constructs or free peptides was determined by scintillation counting each fraction, including the recovered beads.
A human Bcl-XL-GST fusion protein was immobilized on Sepharose beads as described above for the binding assay and incubated with the mRNA display library. For the first round of selection, the input was approximately 0.06 pmol of each of the four source labeled libraries from human tissues (kidney, liver, bone marrow, and brain), which were mixed prior to selection. For subsequent rounds of selection, the input of each of the four source labeled libraries ranged from 0.25 to 0.92 pmol in total. After washing the beads of any unbound nucleic acid-protein fusion library members, the cDNA strand of the bound fusions were recovered in three elutions with 100 μl of 0.1N KOH. Eluates were subsequently neutralized by the addition of 2 μl of 1N Tris-HCL pH 7 and 8 μl of 1N HCL. A small scale PCR optimization was performed with the eluate to determine the number of cycles required to produce a strong signal without overamplification (typically 18-28 cycles). The library was then regenerated by PCR using the remainder of the eluate.

T1 sequence (P08515 1-218, tags or fused parts left off): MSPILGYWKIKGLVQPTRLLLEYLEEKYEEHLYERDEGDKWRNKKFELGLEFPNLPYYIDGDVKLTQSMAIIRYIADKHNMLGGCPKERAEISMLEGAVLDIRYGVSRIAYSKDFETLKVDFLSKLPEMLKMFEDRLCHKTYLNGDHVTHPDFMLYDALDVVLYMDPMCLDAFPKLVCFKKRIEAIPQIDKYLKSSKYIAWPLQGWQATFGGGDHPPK

**Q.** Does B1 bind?
**A.** binds

**Q.** Does B2 bind?
**A.** binds

**Q.** Does EDLESVLIRLINWAKGSPIP [SEQ ID NO 56] bind?
**A.** binds

**Q.** Does B3 bind?
**A.** binds

**Q.** Does B4 bind?
**A.** binds

**Q.** Does B5 bind?
**A.** binds

**Q.** Does B6 bind?
**A.** binds

**Q.** Does VVDVPDFIVWLEEAVSDLHRAL [SEQ ID NO 61] bind?
**A.** binds

**Q.** Does B7 bind?
**A.** binds

**Q.** Does B8 bind?
**A.** binds

**Q.** Does B9 bind?
**A.** binds

**Q.** Does IAQATKATIDKWNCIKLKIFYTSKKEAS [SEQ ID NO 60] bind?
**A.** binds

**Q.** Does QRRGNEFQLRDLADAWDLSSRSRQRGWQMPNCRSRRGPG [SEQ ID NO 62] bind?
**A.** binds

**Q.** Does B10 bind?
**A.** binds

**Q.** Does B11 bind?
**A.** binds

**Q.** Does RPVSFCGAVWTLNRAIGRHFVRGSR [SEQ ID NO 57] bind?
**A.** binds

**Q.** Does B12 bind?
**A.** binds

**Q.** Does B13 bind?
**A.** binds

**Q.** Does B14 bind?
**A.** binds

**Q.** Does B15 bind?
**A.** binds

**Q.** Does B16 bind?
**A.** binds

**Q.** Does B17 bind?
**A.** binds

**Q.** Does B18 bind?
**A.** binds

**Q.** Does B19 bind?
**A.** binds

**Q.** Does B20 bind?
**A.** binds

**Q.** Does B21 bind?
**A.** binds

**Q.** Does GQGTLWGSGMEAWLATVLKALPWHPTYQLEP [SEQ ID NO 59] bind?
**A.** binds

**Q.** Does B22 bind?
**A.** binds

**Q.** Does VHNFGRHWGLPLSFLLNYPLFLSP [SEQ ID NO 51] bind?
**A.** binds

**Q.** Does B23 bind?
**A.** binds

**Q.** Does B24 bind?
**A.** binds

**Q.** Does EQASVKYVILDMYRALLTLMNTSTAT [SEQ ID NO 55] bind?
**A.** binds

**Q.** Does HAVVARLLHIGAIMFQRLDFIEQLSAPPA [SEQ ID NO 58] bind?
**A.** binds

**Q.** Does B25 bind?
**A.** binds

**Q.** Does B26 bind?
**A.** binds

**Q.** Does B27 bind?
**A.** binds

**Q.** Does B28 bind?
**A.** binds

**Q.** Does B29 bind?
**A.** binds

**Q.** Does B30 bind?
**A.** binds

**Q.** Does B31 bind?
**A.** binds

**Q.** Does B32 bind?
**A.** binds

**Q.** Does B33 bind?
**A.** binds

**Q.** Does B34 bind?
**A.** binds

**Q.** Does B35 bind?
**A.** binds

**Q.** Does B36 bind?
**A.** binds

**Q.** Does B37 bind?
**A.** binds

**Q.** Does B38 bind?
**A.** binds

**Q.** Does ASMAPVGRDAETLQKQKETIKAFLKKLEALMASNDNANKT [SEQ ID NO 52] bind?
**A.** binds

**Q.** Does CREQAELTGLRLASLGLKFNKIVHSSMTRAIET [SEQ ID NO 53] bind?
**A.** binds

**Q.** Does B39 bind?
**A.** binds

**Q.** Does B40 bind?
**A.** binds

**Q.** Does GTRISDMLKLIADTWQRNCCPA [SEQ ID NO 54] bind?
**A.** binds
